From paper doi:10.1101/2021.03.19.436221 come the findings set out here.

The target in this assay is ALX301 (human). The assay can be described thus: SPR. (Surface plasmon resonance follows binding to a sensor surface in real time, without labels.)

B1: mouse CD47 (natural protein)
chain: QLLFSNVNSIEFTSCNETVVIPCIVRNVEAQSTEEMFVKWKLNKSYIFIYDGNKNSTTTDQNFTSAKISVSDLINGIASLKMDKRDAMVGNYTCEVTELSREGKTVIELKNRTVSWFSPNEKILIVIFPILAILLFWGKFGILTLKYKSSHTNKRIILLLVAGLVLTVIVVVGAILLIPGEKPVKNASGLGLIVISTGILILLQYNVFMTAFGMTSFTIAILITQVLGYVLALVGLCLCIMACEPVHGPLLISGLGIIALAELLGLVYMKFVASNQRTIQPPRNR
As a reminder, the Kd is the free concentration of one partner at which half of the binding sites on the other are occupied at equilibrium, for simple one-to-one binding. A low value points to higher affinity. In turn, B1 displayed a Kd of 3.41 nM.
